Consider 18 variants from the supplement of paper PMC6757056.

The chains are these.
B1: library; a variant is named by its letters at N, in order (parent)
chain: GCUGUCACCGGUGCUUGGUACGUUAUAUUCAGCCGGUCUGAUGAGUCUNNNNNNAGACGAAACAGC

Variants of B1 are the subject of data set [1]. The data set is described as follows: FACS-Seq fitted mean relative fluorescence mCherry/BFP without ligand (log10 relative fluorescence); HEK293T overexpressing SLC46A1; higher = higher reporter protein expression. To be noted: without (6R,S)-folinic acid; ligand present: no. A digest of the protocol:
(§1)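 To measure fluorescence, a normal distribution was fitted to read counts across sorted bins. The reporter libraries were HEK293T cells transduced by lentivirus with mCherry under ribozyme-switch control and an EF1α-BFP marker, enriched and then kept with or without ligand for 48 h. Sorting used 6 mCherry/BFP bins, and bin genomic DNA was PCR-amplified and sequenced on MiSeq. Fitted means of log10(mCherry/BFP) were scaled to five spiked-in control ribozymes.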

In data set [2] the parent is B1. The data set is described as follows: normalized RNA/DNA level without ligand (relative to sTRSVctl = 100) (log10 (% of sTRSVctl)); HEK293T overexpressing SLC46A1; higher = less ribozyme self-cleavage, higher mRNA level. Conditions: without (6R,S)-folinic acid; ligand present: no. Put shortly: (§2)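 Ribozyme switch library plasmids linked to reporters were introduced into HEK293T cells at 4 µg per 6-well well, with ligand, if any, added 1 h before. Total RNA was extracted with EDTA 72 h later, reverse-transcribed, amplified, barcoded and sequenced. RNA level was computed from RNA over DNA reads relative to a spiked-in non-cleaving sequence or the top sequences, then scaled and log-transformed. The top set was 25 sequences, values were ×100 and log10, and the cutoff was ≥100 DNA reads.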

The variants in data set [3] derive from B1. Description: FACS-Seq fitted mean relative fluorescence mCherry/BFP with ligand (log10 relative fluorescence); HEK293T overexpressing SLC46A1; ligand concentration (+) FACS-Seq: 6 mM; higher = higher reporter protein expression. To be noted: with (6R,S)-folinic acid; ligand present: yes. A digest of the protocol:
as §1

In data set [4] the parent is B1. The data set is described as follows: normalized RNA/DNA level with ligand (relative to sTRSVctl = 100) (log10 (% of sTRSVctl)); HEK293T overexpressing SLC46A1; ligand concentration (+) RNA-Seq: 6 mM; higher = less ribozyme self-cleavage, higher mRNA level. Conditions: with (6R,S)-folinic acid; ligand present: yes. A digest of the protocol: as §2

± gives the standard deviation of the averaged measurements.

Turning to UGGACG, the results for the “FACS-Seq fitted mean (log10)” value in data set [1] and in data set [3] were 0.175 ± 0.0034 and 0.472 ± 0.059, respectively. The “normalized RNA/DNA level without ligand (log10)” value in data set [2] was 1.778 ± 0.013. Further, the “normalized RNA/DNA level with ligand (log10)” value in data set [4] was 1.97 ± 0.029.

As to UGGACA, the results for the “FACS-Seq fitted mean (log10)” value in data set [1] and in data set [3] were 0.24 ± 0.025 and 0.186 ± 0.017, respectively. In data set [2], the “normalized RNA/DNA level without ligand (log10)” value was 1.95 ± 0.0054. Besides, the “normalized RNA/DNA level with ligand (log10)” value in data set [4] was 2.019 ± 0.019.

Turning to UGGACC, the entries for the “FACS-Seq fitted mean (log10)” value in data set [1] and in data set [3] were 0.168 ± 0.11 and 0.0739 ± 0.15, respectively. The “normalized RNA/DNA level without ligand (log10)” value in data set [2] came out at 2.01 ± 0.033. Besides, the “normalized RNA/DNA level with ligand (log10)” value in data set [4] was determined as 1.97 ± 0.033.

On to UGAUUA, for which the figures for the “FACS-Seq fitted mean (log10)” value in data set [1] and in data set [3] were -0.918 ± 0.18 and -0.48 ± 0.39, respectively. In addition, the “normalized RNA/DNA level without ligand (log10)” value in data set [2] came out at 1.951 ± 0.0029. In addition, the “normalized RNA/DNA level with ligand (log10)” value in data set [4] was determined as 2.01 ± 0.037.

Turning to UGAUUG, the “FACS-Seq fitted mean (log10)” value amounted to 0.168 ± 0.056 in data set [1] and 0.541 ± 0.042 in data set [3]. In addition, the “normalized RNA/DNA level without ligand (log10)” value in data set [2] was 1.768 ± 0.0099. For the same variant, the “normalized RNA/DNA level with ligand (log10)” value in data set [4] came to 1.96 ± 0.025.

Take UGGUAA: the entries for the “FACS-Seq fitted mean (log10)” value in data set [1] and in data set [3] were 0.244 ± 0.12 and 0.0329 ± 0.18, respectively. For the same variant, the “normalized RNA/DNA level without ligand (log10)” value in data set [2] was found to be 1.878 ± 0.01. Also, the “normalized RNA/DNA level with ligand (log10)” value in data set [4] was found to be 1.95 ± 0.02.

Consider UGGUAG, for which the “FACS-Seq fitted mean (log10)” value in data set [1] amounted to 0.0552 ± 0.19; in data set [3], 0.505 ± 0.61. The “normalized RNA/DNA level without ligand (log10)” value in data set [2] stood at 1.5837 ± 9.7e-05. Further, the “normalized RNA/DNA level with ligand (log10)” value in data set [4] came to 1.935 ± 0.017.

Regarding UGGUAU, the results for the “FACS-Seq fitted mean (log10)” value in data set [1] and in data set [3] were 0.259 ± 0.18 and 0.274 ± 0.046, respectively. Further, in data set [2], the “normalized RNA/DNA level without ligand (log10)” value turned out to be 1.926 ± 0.0022. The “normalized RNA/DNA level with ligand (log10)” value in data set [4] was found to be 1.99 ± 0.015.

Take UGGUAC: the entries for the “FACS-Seq fitted mean (log10)” value in data set [1] and in data set [3] were -0.0637 ± 0.16 and -0.0596 ± 0.18, respectively. The “normalized RNA/DNA level without ligand (log10)” value in data set [2] stood at 1.994 ± 0.013. For the same variant, the “normalized RNA/DNA level with ligand (log10)” value in data set [4] stood at 1.99 ± 0.039.

Take CGGUGU: the results for the “FACS-Seq fitted mean (log10)” value in data set [1] and in data set [3] were 0.22 ± 0.22 and 0.278 ± 0.12, respectively. Further, in data set [2], the “normalized RNA/DNA level without ligand (log10)” value was determined as 1.993 ± 0.015. Moreover, in data set [4], the “normalized RNA/DNA level with ligand (log10)” value is 1.98 ± 0.046.

GGGUGC: the “FACS-Seq fitted mean (log10)” value in data set [1] stood at 0.427 ± 0.079; in data set [3], 0.461 ± 0.023. For the same variant, the “normalized RNA/DNA level without ligand (log10)” value in data set [2] is 1.969 ± 0.01. In addition, the “normalized RNA/DNA level with ligand (log10)” value in data set [4] stood at 2.011 ± 0.007.

As for GGGUGA, the “FACS-Seq fitted mean (log10)” value in data set [1] was determined as 0.435 ± 0.078; in data set [3], 0.36 ± 0.31. Further, the “normalized RNA/DNA level without ligand (log10)” value in data set [2] worked out at 2.067 ± 0.0049. Also, the “normalized RNA/DNA level with ligand (log10)” value in data set [4] was 2.07 ± 0.036.

GGGACU: the figures for the “FACS-Seq fitted mean (log10)” value in data set [1] and in data set [3] were 0.111 ± 0.0086 and 0.0545 ± 0.19, respectively. For the same variant, the “normalized RNA/DNA level without ligand (log10)” value in data set [2] stood at 2.023 ± 0.011. In data set [4], the “normalized RNA/DNA level with ligand (log10)” value came out at 2.008 ± 0.019.

Turning to GGGACA, the “FACS-Seq fitted mean (log10)” value in data set [1] was found to be 0.123 ± 0.064; in data set [3] it was 0.248 ± 0.14. The “normalized RNA/DNA level without ligand (log10)” value in data set [2] stood at 1.997 ± 0.016. The “normalized RNA/DNA level with ligand (log10)” value in data set [4] amounted to 2 ± 0.063.

As to UGGGAG, the entries for the “FACS-Seq fitted mean (log10)” value in data set [1] and in data set [3] were -0.0508 ± 0.0099 and 0.331 ± 0.024, respectively. Besides, the “normalized RNA/DNA level without ligand (log10)” value in data set [2] was 1.6 ± 0.025. The “normalized RNA/DNA level with ligand (log10)” value in data set [4] stood at 1.93 ± 0.078.

With UGGGAU, the “FACS-Seq fitted mean (log10)” value in data set [1] was determined as 0.3975 ± 0.0017; in data set [3] it was 0.547 ± 0.094. Besides, the “normalized RNA/DNA level without ligand (log10)” value in data set [2] turned out to be 1.86 ± 0.022. In data set [4], the “normalized RNA/DNA level with ligand (log10)” value was 2 ± 0.046.

As to UGAGCU, the results for the “FACS-Seq fitted mean (log10)” value in data set [1] and in data set [3] were 0.387 ± 0.081 and 0.479 ± 0.087, respectively. The “normalized RNA/DNA level without ligand (log10)” value in data set [2] is 2 ± 0.013. Moreover, the “normalized RNA/DNA level with ligand (log10)” value in data set [4] was determined as 2.019 ± 0.012.

In the case of AGGCAC, the figures for the “FACS-Seq fitted mean (log10)” value in data set [1] and in data set [3] were 0.308 ± 0.083 and 0.298 ± 0.11, respectively. Also, the “normalized RNA/DNA level without ligand (log10)” value in data set [2] stood at 2.0376 ± 0.0006. In data set [4], the “normalized RNA/DNA level with ligand (log10)” value stood at 2.02 ± 0.018.
